{
  "source": "the DeepSol protein solubility set",
  "data": [
    {"test": "soluble on expression in E. coli; label from the status in PepcDB or PDB records", "values": [
      {"sequence": "EVQLVESGGGLVQPGGSLRLSCAASGFNIKEYYMHWVRQAPGKGLEWVGLIDPEQGNTIYDPKFQDRATISADNSKNTAYLQMNSLRAEDTAVYYCARDTAAYFDYWGQGTLVTVSSASTKGPSVFPLAPSSKSTSGGTAALGCLVKDYFPEPVTVSWNSGALTSGVHTFPAVLQSSGLYSLSSVVTVPSSSLGTQTYICNVNHKPSNTKVDKKVEPKSCDKTHT", "soluble on expression in E. coli": "soluble"},
      {"sequence": "EVVVIGYGSVKKDDLSGSVVAIKAEEMNKGAVTSPQELIMGKVPGLSVSQGDGAPGAGSTIRIRGGASLNASNDPLIVIDGIPVSNDAAPGTPNALATINPNDIETFTVLKDASATAIYGSRASNGVIII", "soluble on expression in E. coli": "not soluble"},
      {"sequence": "FDAIAGSISDAVVTIDADSEVVYANDEAVELTGYDRKELVGDDFAKVIPEHLRSAHFEGLDRYLRTGNRNVDWDYLELPLVTAAGDQLTVAVSFGDFERNGQWFCTGVLRDIS", "soluble on expression in E. coli": "not soluble"},
      {"sequence": "FEKVYHLKLSIKGITPQIWRRIQVPENYTFLDLHKAIQAVMDWEDYHLHEFEMVNPKTGMLDKIGAEGDDFDAFGGPLVSEKKAKLSDYFTLENKEALYTYDFGDNWQVKVRLEKILPRKEGVEYPICTAGKRAAVPEDSGGVWGYEEMLEVLKDSEHEEYEDTVLWLGDDFDPEYFDPKDVS", "soluble on expression in E. coli": "not soluble"},
      {"sequence": "FIFLALLGAAVAFPVDDDDKIVGGYTCGANTVPYQVSLNSGYHFCGGSLINSQWVVSAAHCYKSGIQVRLGEDNINVVEGNEQFISASKSIVHPSYNSNTLNNDIMLIKLKSAASLNSRVASISLPTSCASAGTQCLISGWGNTKSSGTSYPDVLKCLKAPILSDSSCKSAYPGQITSNMFCAGYLEGGKDSCQGDSGGPVVCSGKLQGIVSWGSGCAQKNKPGVYTKVCNYVSWIKQTIASN", "soluble on expression in E. coli": "soluble"},
      {"sequence": "FMDELVSLTYRSRVRLADPVADIVQIMRASRVRNLRLGITGILLYNGVHFVQTIEGPRSACDELFRLISADPRHQEILAFDLEPITARRFPDWSMRIVSRKELRALAPDLERLDLSGPEDVAELHRTIAASLSRGDA", "soluble on expression in E. coli": "soluble"},
      {"sequence": "FNCNKREGPCSQRSLCECDPNLQLGRHSDQLWHYNLRTNRCERGGYRDNCNSHSSSGACVMACERIHHHHHH", "soluble on expression in E. coli": "soluble"},
      {"sequence": "GAEVDQATKPAEAKYYIAGTITDATTGQELTTAKVTLGDKSVTSSFNEQVNYKAEGYALVVSADGYYPVKRQVYLNQVSDGQTSVATVNVALVSVEAAVIPPVVPPTDPETDINEGEATKVADKAVEVAKPSESTVTDMLAGTTATPEEKKALDETLEMAGGMKVGETTPEVLADGSILAITPVKFTNPIQDAPAMVPYFYNEGCELTGDVKEVAAPVTRADGAVAADIQKAFLSNAAKALNMNAGFVQKIGYTRISVLNGYSILGYTIKGQLVSKKLTFLISGKYYEGIVSYQKSVMIYPNYYSHDSHDSHDSHGFNPNAGGGSND", "soluble on expression in E. coli": "soluble"},
      {"sequence": "GAHVSRVEKLPKDYQIVYKEIQKYLFKVGPVELNEGIGLLSEILGFFEEGAAAGKGVLDVTGTDVAAFCDALIGDSKTYADLYQESIQQHVDKAMKNMKD", "soluble on expression in E. coli": "soluble"},
      {"sequence": "GAKNYYDITLALAGICQSARLVQQLAHQGHCDADALHVSLNSIIDMNPSSTLAVFGGSEANLRVGLETLLGVLNASSRQGLNAELTRYTLSLMVLERKLSSAKGALDTLGNRINGLQRQLEHFDLQSETLMSAMAAIYVDVISPLGPRIQVTGSPAVLQSPQVQAKVRATLLAGIRAAVLWHQVGGGRLQLMFSRNRLTTQAKQILAHLTPEL", "soluble on expression in E. coli": "soluble"},
      {"sequence": "GAMAATAAEAVASGSGEPREEAGALGPAWDESQLRSYSFPTRPIPRLSQSDPRAEELIENEEPVVLTDTNLVYPALKWDLEYLQENIGNGDFSVYSASTHKFLYYDEKKMANFQNFKPRSNREEMKFHEFVEKLQDIQQRGGEERLYLQQTLNDTVGRKIVMDFLGFNWNWINKQQGKRGWGQLTSNLLLIGMEGNVTPAHYDEQQNFFAQIKGYKRCILFPPDQFECLYPYPVHHPCDRQSQVDFDNPDYERFPNFQNVVGYETVVGPGDVLYIPMYWWHHIESLLNGGITITVNFWYKGAPTPKRIEYPLKAHQKVAIMRNIEKMLGEALGNPQEVGPLLNTMIKGRYN", "soluble on expression in E. coli": "soluble"},
      {"sequence": "GAMAPGGEMTFSIPTHKCGLVIGRGGENVKAINQQTGAFVEISRQLPPNGDPNFKLFIIRGSPQQIDHAKQLIEEKIEGPLCPVGPGPGGPGPAGPMGPFNPGPFNQ", "soluble on expression in E. coli": "soluble"},
      {"sequence": "GAMDSSEMSTICDKTLNPSFCLKFLNTKFASPNLQALAKTTLDSTQARATQTLKKLQSIIDGGVDPRSKLAYRSCVDEYESAIGNLEEAFEHLASGDGMGMNMKVSAALDGADTCLDDVKRLRSVDSSVVNNSKTIKNLCGIALVISNMLPRN", "soluble on expression in E. coli": "soluble"},
      {"sequence": "GAMGSMNGIDDLLNINDRIKQVQNERNELASKLQNLKQSLASNDTEVALSEVIAQDIIEVGASVEGLEQLRAKYGDLQILNKLEKVAVQQTQMQAGVDKLDSFERQLDELAEQPPDQFTLDDVKALHSKLTSVFATVPQINNIDSQYAAYNKLKSKVTGKYNDVIIQRLATNWSNTFDQKLLEAQWDTQKFASTSVGLVKCLRENSTKLYQLSLLYLPLEEETQNGDSERPLSRSNNNQEPVLWNFKSLANNFNVRFTYHFHATSSSSKIETYFQFLNDYLAENLYKCINIFHDDCNGLTKPVIHEQFINYVLQPIRDKVRSTLFQNDLKTLIVLISQILATDKNLLNSFHYHGLGLVSLISDEVWEKWINYEVEMANRQFINITKNPEDFPKSSQNFVKLINKIYDYLEPFYDLDFDLLVRYKLMTCSLIFMNLTSSYLDYILTVDSLNETRTKEQELYQTMAKLQHVNFVYRKIKSLSSNFIFIQLTDIVNSTESKKYNSLFQNVENDYEKAMSTDMQNSIVHRIQKLLKETLRNYFKISTWSTLEMSVDENIGPSSVPSAELVNSINVLRRLINKLDSMDIPLAISLKVKNELLNVIVNYFTESILKLNKFNQNGLNQFLHDFKSLSSILSLPSHATNYKCMSLHELVKILKLKYDPNNQQFLNPEYIKTGNFTSLKEAYSIKYLKDTKIQDALYRIIYGNIL", "soluble on expression in E. coli": "soluble"},
      {"sequence": "GAMGSPKEHIDLYQQIKWNGWGDTRKFLHQLKPSGTIAMTTPEVSSVPLPSLRGFIKKELTLPGEEDKPFVLDETPALQIENIHVDPPKQYPEFVRELKAFFLPDQLKDDKLARITHTFGKSLRDLIRVRIGQVKNAPDLIVLPHSHEEVERLVQLAHKYNVVIIPMGGGSNIVGAIEPVSNERFTVSIDMRRMNKVLWVDRREMTACIQVGIMGPELEKQLHKQGVSLGHDPDSFEFSTLGGWLATCSSGHQSDKYGDIEDMAVSFRTVTPTGTLELRNGARSGAGINYKHIILGSEGTLGIITEAVMKVHAVPQAVEYYGFLFPTFAHAVSALQQIRSSEVIPTMIRVYDPEETQLSFAWKPSKGAVSEFTSAMVKKYLHYIRSFDFKNVCLSIIGFEGPKKVVDFHRTSVFDILSKNAAFGLGSAPGKTWAEKRYDLPYIRDFLLDHNMWVDVAETTVSYANLQTLWKDAKQTFVKHFKDQGIPAWICAHISHTYTNGVCLYFIFASKQNENKDMAQYIEAKKLMTDIIFKYGGSLSHHHGVGYEHVPWMTRYATRGWINVYRSLKETIDPKDICNPRKLI", "soluble on expression in E. coli": "soluble"},
      {"sequence": "GAMSEAFHTHSGIGVPLRRSNVDTDQIIPAVFLKRVTRTGFEDGLFAGWRSDPAFVLNLSPFDRGSVLVAGPDFGTGSSREHAVWALMDYGFRVVISSRFGDIFRGNAGKAGLLAAEVAQDDVELLWKLIEQSPGLEITANLQDRIITAATVVLPFKIDDHSAWRLLEGLDDIALTLRKLDEIEAFEGA", "soluble on expression in E. coli": "soluble"},
      {"sequence": "GAMSGLADKVIWAVNAGGESHVDVHGIHYRKDPLEGRVGRASDYGMKLPILRSNPEDQVLYQTERYNEDSFGYDIPIKEEGEYVLVLKFAEVYFAQSQQKVFDVRVNGHTVVKDLDIFDRVGHSTAHDEIIPISIKKGKLSVQGEVSTFTGKLSVEFVKGYYDNPKVCALFIMKGTADDVPMLQPHPGLE", "soluble on expression in E. coli": "soluble"},
      {"sequence": "GAMVETKCPNLDIVTSSGEFHCSGCVEHMPEFSYMYWLAKDMKSDEDTKFIEHLGDGINEDETVRTTDGGITTLRKVLHVTDTNKFAHYRFTCVLTTLDGVSKKNIWLK", "soluble on expression in E. coli": "soluble"},
      {"sequence": "GANRTLIVTTILEEPYVMYRKSDKPLYGNDRFEGYCLDLLKELSNILGFLYDVKLVPDGKYGAQNDKGEWNGMVKELIDHRADLAVAPLTITYVREKVIDFSKPFMTLGISILYRKGTPIDSADDLAKQTKIEYGAVRDGSTMTFFKKSKISTYEKMWAFMSSRQQSALVKNSDEGIQRVLTTDYALLMESTSIEYVTQRNCNLTQIGGLIDSKGYGVGTPIGSPYRDKITIAILQLQEEGKLHMMKEKWWRGNGCPE", "soluble on expression in E. coli": "soluble"},
      {"sequence": "GAVDLNKENRDPKYVESIVNRSQKIVDKLGLTDAKVAEDVCNVIANRYFELNDIYEIRDAKVKAVKESGLTGDAKNEALKAAENEKDAALYRSHFAFPASLSLFLNEEQIEAVKDGMTYGVVKVTYEATLDMIPSLKEEEKVQIYAWLVEAREFAMDAENSNKKHAAFGKYKGRINNYLAKRGYNLTKEREEWAKRVKARGGTL", "soluble on expression in E. coli": "soluble"},
      {"sequence": "GDQEPPLYVNENDIFTSPTRIEATLNGLYAAIKNTGTKSLMGGKSYLVFDNRGDDVINISNNLVTLFNTYNMNVGITDAENADTWTYAYLAINKVNTFLQSLEGAREVAGENYDRYVQEAKFVRALAYYYLNNLYPTPYSVNPDAKSVPLRLTAEAGTENNNMPRSTVKQIYEHILSDLENISALDTEVNTYTGVTHATQAAANMLKMRVYMAMNEWDKAITAGELVTGYSLPEDVTLIYKAPYFSQESIFSLPMADTNIPNTQQSLAEYYYDGKIMLIDTKSGIMSKPDYSLATDKRIIAFKGEKDLLMKFTDAKTKLQWVPIFRYAETLLDLAECYANKAGGEATAKSLLKQVRGRSVDAATDPLNIDNLSGDALKEAIYNEKRLEFIGEGIRGIDIMRRGEHFIKVGENETINVGPSDEKYTWPIPQVELLLNKDINK", "soluble on expression in E. coli": "soluble"},
      {"sequence": "GEERKCLQTHRVTVHGVPGPEPFTVFTINGGTKAKQLLQQILTNEQDIKPVTTDYFLMEEKYFISKEKNECRKQPFQRAIGPEEEIMQILSSWFPEEGYMGRIVLKTQQE", "soluble on expression in E. coli": "soluble"},
      {"sequence": "GEGITLNQVAVGCECQDCLWAPTGGCCPGASLHKFAYNDQGQVRLRAGLPIYECNSRCRCGYDCPNRVVQKGIRYDLCIFRTDDGRGWGVRTLEKIRKNSFVMEYVGEIITSEEAERRGQIYDRQGATYLFDLDYVEDVYTVDAAYYGNISHFVNHSCDPNLQVYNVFIDNLDERLPRIAFFATRTIRAGEELTFDYNMQVDPVDMESTRMDSNFGLAGLPGSPKKRVRIECKCGTESCRKYLF", "soluble on expression in E. coli": "not soluble"},
      {"sequence": "GEKVDFDDIQKKRQNKDLIELQALIDSHFEARRKEEEELVALKERIEKRRAERAE", "soluble on expression in E. coli": "soluble"},
      {"sequence": "GELMPPQLQNGLNLSAKVVQGSLDSLPQAVREFLENNAELCQPDHIHICDGSEEENGRLLGQMEEEGILRRLKKYDNCWLALTDPRDVARIESKTVIVTQEQRDTVPIPKTGLSQLGRWMSEEDFEKAFNARFPGCMKGRTMYVIPFSMGPLGSPLSKIGIELTDSPYVVASMRIMTRMGTPVLEALGDGEFVKCLHSVGCPLPLQKPLVNNWPCNPELTLIAHLPDRREIISFGSGYGGNSLLGKKCFALRMASRLAKEEGWLAEHMLVLGITNPEGEKKYLAAAFPSACGKTNLAMMNPSLPGWKVECVGDDIAWMKFDAQGHLRAINPENGFFGVAPGTSVKTNPNAIKTIQKNTIFTNVAETSDGGVYWEGIDEPLASGVTITSWKNKEWSSEDGEPCAHPNSRFCTPASQCPIIDAAWESPEGVPIEGIIFGGRRPAGVPLVYEALSWQHGVFVGAAMRSEATAAAEHKGKIIMHDPFAMRPFFGYNFGKYLAHWLSMAQHPAAKLPKIFHVNWFRKDKEGKFLWPGFGENSRVLEWMFNRIDGKASTKLTPIGYIPKEDALNLKGLGHINMMELFSISKEFWDKEVEDIEKYLVDQVNADLPCEIEREILALKQRISQM", "soluble on expression in E. coli": "soluble"}
    ]}
  ]
}
